Experimental data as given in PMC10681713, “RAD51 paralogs synergize with RAD51 to protect reversed forks from cellular nucleases” (Nucleic Acids Research, 2023).
Values belong to the molecule of their own block, whether it stands above or below them.

Tests used:
[1] = biological target: Flag-RAD51C (of the BCDX2 complex) (human) (UniProt O43502); experiment: native MS; purified BCDX2 in 500 mM ammonium acetate pH 7.5; low activation energy for the intact complex, in-source trapping (-50 to -250 V) to dissociate it
[2] = biological target: T1, His6-XRCC2 (of the BCDX2 complex) (human, UniProt O43543 1-280); experiment: as above; conditions: both partners purified
T1 construct: human XRCC2, cDNA; a TEV cutting site stands between the tag and the gene; No TEV cleavage is described in the purification; source: Expi293F cells, transfected, co-expressed from pcDNA3.4-tetrad-BCDX2; purified as part of the complex (Ni-NTA, anti-Flag M2 agarose, Superdex 200); not shown: His6, N-terminal, kept
T1 sequence (looked up): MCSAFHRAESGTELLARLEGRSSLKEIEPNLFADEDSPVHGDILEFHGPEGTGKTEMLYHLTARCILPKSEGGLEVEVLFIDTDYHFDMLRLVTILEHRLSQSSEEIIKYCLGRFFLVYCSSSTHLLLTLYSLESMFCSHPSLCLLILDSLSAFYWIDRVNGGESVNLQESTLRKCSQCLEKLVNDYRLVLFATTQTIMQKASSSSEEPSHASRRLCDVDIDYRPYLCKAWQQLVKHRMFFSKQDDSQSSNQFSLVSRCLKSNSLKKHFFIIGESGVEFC

[3] = biological target: T2, BCDX2 (RAD51B-RAD51C-RAD51D-XRCC2) (Homo sapiens, UniProt O15315;O43502;O75771;O43543 1-384;1-376;1-328;1-280); experiment: EMSA; 1 mM ATP, 58 nM DNA; Buffer E (composition not in the material), 37 °C, 10 min; paralogs: 50 mM KCl, 1 mM ATP, 0.8% agarose gel; RAD51: 100 mM KCl, 2 mM ATP, 6% TBE-PAGE; conditions: protein: recombinant, tags: N-terminal Flag on RAD51C, N-terminal His6 on XRCC2, TEV sites, copies: 1;1;1;1
T2 sequence 1: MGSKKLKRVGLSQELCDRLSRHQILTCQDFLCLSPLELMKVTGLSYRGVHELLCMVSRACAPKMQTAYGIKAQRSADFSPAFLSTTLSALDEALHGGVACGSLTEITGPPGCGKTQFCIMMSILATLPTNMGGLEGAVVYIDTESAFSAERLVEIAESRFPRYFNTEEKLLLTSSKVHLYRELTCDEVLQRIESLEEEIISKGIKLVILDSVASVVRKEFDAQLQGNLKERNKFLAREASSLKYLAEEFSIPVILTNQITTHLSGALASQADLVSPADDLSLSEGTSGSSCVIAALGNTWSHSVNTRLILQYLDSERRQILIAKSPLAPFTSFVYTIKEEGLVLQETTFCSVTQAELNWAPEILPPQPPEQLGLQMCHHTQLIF
T2 sequence 2: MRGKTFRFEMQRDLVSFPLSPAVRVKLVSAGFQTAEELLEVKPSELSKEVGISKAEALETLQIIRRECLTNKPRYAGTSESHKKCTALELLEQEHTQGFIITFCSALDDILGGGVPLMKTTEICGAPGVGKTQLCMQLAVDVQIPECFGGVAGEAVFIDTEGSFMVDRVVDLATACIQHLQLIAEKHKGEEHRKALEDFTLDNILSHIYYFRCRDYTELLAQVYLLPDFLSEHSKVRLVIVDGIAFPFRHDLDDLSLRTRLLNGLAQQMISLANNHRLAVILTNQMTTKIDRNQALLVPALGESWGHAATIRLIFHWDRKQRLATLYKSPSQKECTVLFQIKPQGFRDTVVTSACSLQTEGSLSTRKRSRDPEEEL
T2 sequence 3: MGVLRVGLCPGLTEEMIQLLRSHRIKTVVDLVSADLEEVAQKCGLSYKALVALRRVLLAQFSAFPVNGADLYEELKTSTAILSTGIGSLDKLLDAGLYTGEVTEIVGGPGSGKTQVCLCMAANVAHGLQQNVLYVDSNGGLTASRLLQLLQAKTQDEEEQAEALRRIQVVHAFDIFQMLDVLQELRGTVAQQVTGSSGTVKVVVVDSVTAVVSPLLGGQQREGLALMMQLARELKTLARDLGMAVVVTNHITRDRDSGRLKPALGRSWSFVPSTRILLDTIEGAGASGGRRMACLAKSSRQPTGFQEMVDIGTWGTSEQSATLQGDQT
T2 sequence 4: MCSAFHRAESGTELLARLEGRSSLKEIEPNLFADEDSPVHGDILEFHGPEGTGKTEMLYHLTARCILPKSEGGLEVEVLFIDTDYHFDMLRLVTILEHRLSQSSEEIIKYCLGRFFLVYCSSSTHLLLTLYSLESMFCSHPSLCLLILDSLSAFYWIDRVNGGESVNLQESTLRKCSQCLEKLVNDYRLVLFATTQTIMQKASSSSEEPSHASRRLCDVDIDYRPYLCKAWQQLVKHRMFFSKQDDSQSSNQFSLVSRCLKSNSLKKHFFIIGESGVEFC

CX3 (RAD51C-XRCC3) = biological target: T3, CX3 (RAD51C-XRCC3) (Homo sapiens, UniProt O43502;O43542 1-376;1-346); experiment: as above; conditions: protein: recombinant, tags: N-terminal His6-Flag on RAD51C, copies: 1;1, 25 bp duplex
T3 sequence 1: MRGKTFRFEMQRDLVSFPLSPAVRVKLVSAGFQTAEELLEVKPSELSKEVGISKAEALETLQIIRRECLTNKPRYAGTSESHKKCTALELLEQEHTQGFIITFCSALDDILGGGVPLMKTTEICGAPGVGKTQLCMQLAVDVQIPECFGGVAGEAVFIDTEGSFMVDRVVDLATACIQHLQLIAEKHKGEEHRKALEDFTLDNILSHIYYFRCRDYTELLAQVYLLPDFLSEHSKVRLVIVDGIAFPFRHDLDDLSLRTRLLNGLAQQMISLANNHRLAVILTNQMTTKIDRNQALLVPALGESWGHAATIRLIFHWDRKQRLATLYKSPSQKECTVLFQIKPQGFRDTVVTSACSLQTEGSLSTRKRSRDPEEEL
T3 sequence 2: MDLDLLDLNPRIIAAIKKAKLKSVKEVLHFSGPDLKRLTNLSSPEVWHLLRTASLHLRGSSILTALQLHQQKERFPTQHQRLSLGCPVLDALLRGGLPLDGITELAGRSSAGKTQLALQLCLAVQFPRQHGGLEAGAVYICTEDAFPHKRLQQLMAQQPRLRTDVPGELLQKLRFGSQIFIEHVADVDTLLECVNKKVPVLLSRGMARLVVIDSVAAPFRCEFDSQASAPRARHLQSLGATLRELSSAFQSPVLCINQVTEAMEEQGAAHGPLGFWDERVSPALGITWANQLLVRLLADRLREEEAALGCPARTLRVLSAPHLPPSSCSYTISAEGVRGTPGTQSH

- stoichiometry N [1]: 1
Molecule: RAD51B (from UniProt O15315 1-384) (natural protein)

- stoichiometry N [2]: 1
B1: RAD51D (natural protein, human, UniProt O75771 1-328, looked up)
chain: MGVLRVGLCPGLTEEMIQLLRSHRIKTVVDLVSADLEEVAQKCGLSYKALVALRRVLLAQFSAFPVNGADLYEELKTSTAILSTGIGSLDKLLDAGLYTGEVTEIVGGPGSGKTQVCLCMAANVAHGLQQNVLYVDSNGGLTASRLLQLLQAKTQDEEEQAEALRRIQVVHAFDIFQMLDVLQELRGTVAQQVTGSSGTVKVVVVDSVTAVVSPLLGGQQREGLALMMQLARELKTLARDLGMAVVVTNHITRDRDSGRLKPALGRSWSFVPSTRILLDTIEGAGASGGRRMACLAKSSRQPTGFQEMVDIGTWGTSEQSATLQGDQT
notes: No tag is described on this chain; also called D (in BCDX2 and DX2); source: Expi293F cells, transfected, co-expressed with the other paralogs from one plasmid; purified as part of the complex (Ni-NTA, anti-Flag M2 agarose, Superdex 200)

B2: 5' overhang DNA (oligo 7 + oligo 8) (mixed)
DNA 1: GGGTGAACCTGCAGGTGGGCAAAGA
DNA 2: ACGCTGCCGAATTCTACCAGTGCCTTGCTAGGACATCTTTGCCCACCTGCAGGTTCACCC
modifications: oligo 8: phosphorothioate bonds at both ends (first 5 and last 5 linkages)
- binding result ([3]; label: 5' Cy3 on oligo 7, 25 bp duplex, 5' overhang 35 nt on strand 2): binds
- binding result (CX3 (RAD51C-XRCC3); label: 5' Cy3 on oligo 7, 5' overhang 35 nt on strand 2): binds

B3: 3' overhang DNA (oligo 9 + oligo 8) (mixed)
DNA 1: AGGCACTGGTAGAATTCGGCAGCGT
DNA 2: ACGCTGCCGAATTCTACCAGTGCCTTGCTAGGACATCTTTGCCCACCTGCAGGTTCACCC
modifications: oligo 8: phosphorothioate bonds at both ends (first 5 and last 5 linkages)
- binding result ([3]; label: 3' Cy3 on oligo 9, 25 bp duplex, 3' overhang 35 nt on strand 2): binds
- binding result (CX3 (RAD51C-XRCC3); label: 3' Cy3 on oligo 9, 3' overhang 35 nt on strand 2): binds

B4: dsDNA 55 bp (oligo 13 + oligo 14) (dsDNA)
DNA 1: TTAGAGCTTAATTGCTGAATCTGGTGCTGTGGGTGAACCTGCAGGTGGGCAAAGA
DNA 2: TCTTTGCCCACCTGCAGGTTCACCCACAGCACCAGATTCAGCAATTAAGCTCTAA
- binding result ([3]; label: 5' Cy3 on oligo 13, blunt): no binding
